Assay results: article PMC6920932

What was measured:
[1] = molecular target: haloalkane dehalogenase DmxA wild type from Marinobacter sp. ELB17 (Marinobacter sp. ELB17); assay: SEC; gel filtration chromatography of purified DmxA wt; conditions not told in the text shown
[2] = molecular target: haloalkane dehalogenase DmxA wild type from Marinobacter sp. ELB17 (Marinobacter sp. ELB17); assay: not stated; DmxA wt in solution; the discussion does not say which experiment gave the share of dimer
[3] = molecular target: haloalkane dehalogenase DmxA wild type from Marinobacter sp. ELB17 (Marinobacter sp. ELB17); assay: native gel or EMSA; native polyacrylamide gel, 4 °C, 115 V, Coomassie stain; reduced (10 mM DTT, degassed, nitrogen) and non-reduced samples compared; LinB (34 kDa, monomer) and DbjA (66 kDa, dimer) as size standards
BrCCCBr = assay: purified protein; conditions: 100 mM glycine buffer pH 8.6, 37 °C, cooperativity and partial substrate inhibition
N#CCCCBr = assay: purified protein; conditions: 100 mM glycine buffer pH 8.6, 37 °C, substrate inhibition

“haloalkane dehalogenase DmxA wild type from Marinobacter sp. ELB17 (enzyme)” was tested, and the stoichiometry N [1] was 2, the percent of the enzyme present as a dimer [2] was less than 30% and the stoichiometry N [3] was 2.

With DmxA (Marinobacter sp. ELB17) the Km (BrCCCBr) was 30 µM, the kcat (BrCCCBr) was 2.61 s⁻¹ and the Km (N#CCCCBr) was 670 µM. For the same substance, the kcat (N#CCCCBr) was 1.89 s⁻¹.
